According to paper PMC10192418 (2023):

B1: linear peptide 3 [modified: 5(6)-carboxyfluorescein on the N-terminus; 5(6)-carboxyfluorescein on the N-terminus] / B-RCAL (BÜHLMANN recombinant calprotectin; His6-linker-S100A9-linker-S100A8) [human] (parent complex)
chain 1: RSPESVAFPMFQSHWYSG
chain 2: MTCKMSQLERNIETIINTFHQYSVKLGHPDTLNQGEFKELVRKDLQNFLKKENKNEKVIEHIMEDLDTNADKQLSFEEFIMLMARLTWASHEKMHEGDEGPGHHHKPGLGEGTPLEVLFQGPMLTELEKALNSIIDVYHKYSLIKGNFHAVYRDDLKKLLETECPQYIRKKGADVWFKELDINTDGAVNFQEFLILVIKMGVAAHKKSHEESHKE

Variants of: B1
Experiment: SPR; peptide injected at 500 nM; single measurement; calprotectin immobilized; read off a plot

Variant	response
chain 1 RSPASVAFPMFQSHWYSG [chain 1 E4A]	~130 RU
